Source: patent US20230235054A1 (BIOATLA, published 2023)

T1: RatNectin4-His (rat, UniProt D3ZET1 31-348)
T1 construct: Immobilized on the SPR chip; not shown: His tag
T1 sequence: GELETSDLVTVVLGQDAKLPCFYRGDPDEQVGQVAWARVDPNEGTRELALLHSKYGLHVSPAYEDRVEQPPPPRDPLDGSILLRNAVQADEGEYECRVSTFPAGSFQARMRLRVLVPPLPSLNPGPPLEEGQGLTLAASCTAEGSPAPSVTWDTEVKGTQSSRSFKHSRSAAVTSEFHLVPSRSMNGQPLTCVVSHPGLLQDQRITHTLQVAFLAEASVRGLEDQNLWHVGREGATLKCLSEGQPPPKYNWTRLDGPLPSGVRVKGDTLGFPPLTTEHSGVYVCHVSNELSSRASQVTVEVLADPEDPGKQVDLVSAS

T2: recombinant human Nectin4 antigen (human, UniProt Q96NY8 32-349)
T2 construct: construct not described
T2 sequence (looked up): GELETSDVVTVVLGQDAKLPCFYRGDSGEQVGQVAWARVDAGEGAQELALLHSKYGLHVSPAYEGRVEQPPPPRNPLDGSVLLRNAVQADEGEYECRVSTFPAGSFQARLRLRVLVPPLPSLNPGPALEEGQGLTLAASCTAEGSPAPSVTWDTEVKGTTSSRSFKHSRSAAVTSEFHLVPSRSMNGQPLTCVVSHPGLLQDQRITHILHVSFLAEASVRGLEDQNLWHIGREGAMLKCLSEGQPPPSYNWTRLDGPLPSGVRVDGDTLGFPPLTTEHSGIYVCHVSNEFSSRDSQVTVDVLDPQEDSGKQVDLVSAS


Key:
RatNectin4-His = target: T1, RatNectin4-His; assay: SPR, RatNectin4-His immobilized, pH 6.5
Method: All injections were done at a flow rate of 25 μL/min at 25° C. The sensor surface was activated with 1-ethyl-3-(3-dimethylaminopropyl)-carbodiimide (EDC) and N-hydroxysuccinimide (NHS) (200 mM/50 mM) for 480 seconds. HuNectin4-His (2 μg/mL in 10 mM NaAc, pH4.5) was injected for 480s and the surface was inactivated by injecting 1M ethanolamine-HCl for 480s. CynoNectin4 was immobilized using the same conditions as described for huNectin4-His, except that the cynoNectin4 was diluted into 10 mM NaAc buffer having pH 5.0. The control surface was activated and deactivated using the same conditions, but without injecting protein. PBST buffer (PBS pH 7.4 with 0.05% TWEEN20™) was used as running buffer for the surface preparation. The running solution was switched to PBST with 30 mM sodium bicarbonate with the pH adjusted as indicated in the figures before the analyte injections. The instrument was equilibrated with the running solution for one hour before the first analyte injection.
The off-rate was measured for 360s. The chip surface was regenerated after each cycle of interaction analysis by injecting 6 μL of 10 mM glycine (pH 2.0). Flow cells 1 and 3 without immobilized protein were used as control surfaces for reference subtraction.
In addition, data with buffer only as analyte (0 nM analyte) was subtracted from each run. Double subtracted data was fitted with the provided analysis software Analyzer R2 (Sierra Sensors) using a 1:1 binding model. A molecular weight of 150 kDa was used to calculate the molar concentrations of the analytes. RatNectin4-His was immobilized in FC3 using the same conditions as described for cynoNectin4.

[1] = target: T2, recombinant human Nectin4 antigen; assay: pH range ELISA, 30 ng/mL, pH of 50% binding activity
Method: 1) Coat ELISA plates with 100 μL of 1 μg/mL recombinant human Nectin4 antigen in carbonate-bicarbonate coating buffer [0462] 2) Cover plates with sealing film and incubate overnight at 4° C. […] 3) Decant plates and tap out residual liquid on a stack of paper towels [0464] 4) Wash wells twice by dispensing 200 μL of various pH incubation buffer to the wells and completely aspirate the contents [0465] 5) Add 200 μL of various pH incubation buffers (pH5.5, 6.0, 6.2, 6.5, 6.7, 7.0 and 7.4) to the wells. Cover with sealing film and place the plate onto a plate shaker (set to 200 rpm) for 60 minutes at room temperature [0466] 6) Decant plates and tap out residual liquid on a stack of paper towels [0467] 7) Serially dilute test substances in various pH incubation buffers (pH5.5, 6.0, 6.2, 6.5, 6.7, 7.0 and 7.4) to 30 ng/mL [0468] 8) Add 100 μL/well of diluted test substances to the plates [0469] 9) Cover with sealing film and place the plates onto a plate shaker (set to 200 rpm) for 60 minutes at room temperature. [0470] 10) Decant plates and tap out residual liquid on a stack of paper towels. […] 12) Dilute the HRP secondary antibody at 1:2500 in various pH incubation buffers (pH5.5, 6.0, 6.2, 6.5, 6.7, 7.0 and 7.4) [0473] 13) Add 100 μL HRP secondary antibody diluted in various pH incubation buffers (pH5.5, 6.0, 6.2, 6.5, 6.7, 7.0 and 7.4) to each well. […] 14) Cover with sealing film and place the plates onto a plate shaker (set to 200 rpm) for 60 minutes at room temperature. [0475] 15) Decant plates and tap out residual liquid on a stack of paper towels. […] 16) Wash wells three times by dispensing 200 μL of various pH wash buffer (pH5.5, 6.0, 6.2, 6.5, 6.7, 7.0 and 7.4) to the wells and completely aspirating the contents [0477] 17) Dispense 50 μL per well of the TMB substrate solution into all wells of plates.

Kd (RatNectin4-His)	koff (RatNectin4-His)	kon (RatNectin4-His)	pH inflection point [1]	Binder
0.108 nM				BAP-143-wildtype (antibody, V domains shown, 150 kDa used in SPR; also called BAP143-00-00; benchmark (BM)) VH: EVQLVESGGGLVQPGGSLRLSCAASGFTFSSYNMNWVRQAPGKGLEWVSYISSSSSTIYYADSVKGRFTISRDNAKNSLSLQMNSLRDEDTAVYYCARAYYYGMDVWGQGTTVTVSS VL: DIQMTQSPSSVSASVGDRVTITCRASQGISGWLAWYQQKPGKAPKFLIYAASTLQSGVPSRFSGSGSGTDFTLTISSLQPEDFATYYCQQANSFPPTFGGGTKVEIK
0.0378 nM	0.000128 s⁻¹	3.39e+06 M⁻¹ s⁻¹		BAP-143-06-24-16 (antibody, V domains shown, Used as a conjugate with a linker payload (CAB ADC)) VH: EVQLVQSGAEVKKPGATVKISCKVSGFTFSSYNMNWIRQSPSRGLEWLGYISSSSSTIYYADSVKGRFTISRDNSKNTLYLQMNSLRAEDTAVYYCARAYYYGDDVWGQGTLVTVSS VL: DIQMTQSPSSVSASVGDRVTITCHASQGISGWLAWYQQKPGKAPKFLIYAASTLQSGVPSRFSGSGSGTDFTLTISSLQPEDFATYYCQQANSFPPTFGGGTKVEIK
			6.85 pH	BAP-143-06-33-03 (antibody, V domains shown, Used as a conjugate with a linker payload (CAB ADC)) VH: QVQLVQSGAEVKKPGASVKVSCKASGFTFSSYNMNWVRQARGQRLEWIGYISSSSSTIYYADSVKGRFTISRDNSKNTLYLQMNSLRAEDTAVYYCARAYYYGMDKWGQGTLVTVSS VL: DIQMTQSPSSVSASVGDRVTITCRASQGISGWLAWYQQKPGKAPKFLIYAASTLQSGVPSRFSGSGSGTDFTLTISSLQPEDFATYYCQQANSEPPTFGGGTKVEIK
0.101 nM	0.000304 s⁻¹	3.01e+06 M⁻¹ s⁻¹	6.6 pH	BAP-143-06-33-16 (antibody, V domains shown, Used as a conjugate with a linker payload (CAB ADC)) VH: EVQLVQSGAEVKKPGATVKISCKVSGFTFSSYNMNWIRQSPSRGLEWLGYISSSSSTIYYADSVKGRFTISRDNSKNTLYLQMNSLRAEDTAVYYCARAYYYGDDVWGQGTLVTVSS VL: DIQMTQSPSSVSASVGDRVTITCRASQGISGWEAWYQQKPGKAPKFLIYAASTLQSGVPSRFSGSGSGTDFTLTISSLQPEDFATYYCQQANSFPPTFGGGTKVEIK
1.1 nM	0.000868 s⁻¹	787000 M⁻¹ s⁻¹	6.51 pH	BAP-143-07-03-12 (antibody, V domains shown, Used as a conjugate with a linker payload (CAB ADC)) VH: EVQLVESGGGLVQPGGSLRLSCAASGFTFSSYNMNWVRQAPGKGLEWVSYISSSSSTIYYADSVKGRFTISRDNAKNSLSLQMNSLRDEDTAVYYCARAYYYGMDKWGQGTTVTVSS VL: DIQMTQSPSSVSASVGDRVTITCRASQGISGWEAWYQQKPGKAPKFLIYAASTLQSGVPSRFSGSGSGTDFTLTISSLQPEDFATYYCQQANSFPPTFGGGTKVEIK
1.36 nM	0.000953 s⁻¹	700000 M⁻¹ s⁻¹	6.58 pH	BAP-143-00-01 (antibody, V domains shown, Used as a conjugate with a linker payload (CAB ADC)) VH: EVQLVESGGGLVQPGGSLRLSCAASGFTFSSYNMNWVRQAPGKGLEWVSYISSSSSTIYYADSVKGRFTISRDNAKNSLSLQMNSLRDEDTAVYYCARAYYYGMDVWGQGTTVTVSS VL: DIQMTQSPSSVSASVGDRVTITCRASQGISGWEAWYQQKPGKAPKFLIYAASTLQSGVPSRFSGSGSGTDFTLTISSLQPEDFATYYCQQANSFPPTFGGGTKVEIK
